The values that follow come from paper PMC7959541.

The target of assay [1] is Cy5 labeled PDZ14 (engineered yeast SmF variant with a PDZ domain at its C-terminus, 14-mer) (Saccharomyces cerevisiae). The experiment in a line: dual-color fluorescence cross-correlation spectroscopy.
Assay [2] shares this target. The experiment in a line: fluorescence burst analysis of two-colour confocal trajectories.

Consider “Alexa 488 labeled KKETPV14 (engineered yeast SmF variant with the short peptide KKETPV at its C-terminus, 14-mer)”, for which the results for the stoichiometry N (KKETPV14:PDZ14) in assay [1] and in assay [2] were 1 and 0.99, respectively.
